Reference: PMC10720983

Target: DtpM (dithiolopyrrolone methyltransferase) (Saccharothrix algeriensis)
Assay: SEC-MALS

- stoichiometry N: 2
Substance: DtpM (dithiolopyrrolone methyltransferase) (enzyme)
